Measured values reported in IntAct's records for PubMed 32911434.

B1: Nuclear factor erythroid 2-related factor 2 (Homo sapiens), Q16236 (parent)
chain: MMDLELPPPGLPSQQDMDLIDILWRQDIDLGVSREVFDFSQRRKEYELEKQKKLEKERQEQLQKEQEKAFFAQLQLDEETGEFLPIQPAQHIQSETSGSANYSQVAHIPKSDALYFDDCMQLLAQTFPFVDDNEVSSATFQSLVPDIPGHIESPVFIATNQAQSPETSVAQVAPVDLDGMQQDIEQVWEELLSIPELQCLNIENDKLVETTMVPSPEAKLTEVDNYHFYSSIPSMEKEVGNCSPHFLNAFEDSFSSILSTEDPNQLTVNSLNSDATVNTDFGDEFYSAFIAEPSISNSMPSPATLSHSLSELLNGPIDVSDLSLCKAFNQNHPESTAEFNDSDSGISLNTSPSVASPEHSVESSSYGDTLLGLSDSEVEELDSAPGSVKQNGPKTPVHSSGDMVQPLSPSQGQSTHVHDAQCENTPEKELPVSPGHRKTPFTKDKHSSRLEAHLTRDELRAKALHIPFPVEKIINLPVVDFNEMMSKEQFNEAQLALIRDIRRRGKNKVAAQNCRKRKLENIVELEQDLDHLKDEKEKLLKEKGENDKSLHLLKKQLSTLYLEVFSMLRDEDGKPYSPSEYSLQQTRDGNVFLVPKSKKPDVKKN
partner: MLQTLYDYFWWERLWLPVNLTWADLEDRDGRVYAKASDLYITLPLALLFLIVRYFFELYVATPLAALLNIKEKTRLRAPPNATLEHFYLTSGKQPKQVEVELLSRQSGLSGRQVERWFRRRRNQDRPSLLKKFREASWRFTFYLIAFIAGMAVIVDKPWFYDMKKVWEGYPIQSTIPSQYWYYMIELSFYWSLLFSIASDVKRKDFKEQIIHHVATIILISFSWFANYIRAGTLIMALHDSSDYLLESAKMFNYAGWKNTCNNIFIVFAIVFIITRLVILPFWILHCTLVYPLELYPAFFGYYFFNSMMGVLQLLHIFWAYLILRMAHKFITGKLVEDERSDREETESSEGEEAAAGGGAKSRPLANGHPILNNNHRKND
B2: Nuclear factor erythroid 2-related factor 2 (Homo sapiens), Q16236 (parent)
chain: B1 chain
B3: Nuclear factor erythroid 2-related factor 2 (Homo sapiens), Q16236 (parent)
chain: B1 chain
partner: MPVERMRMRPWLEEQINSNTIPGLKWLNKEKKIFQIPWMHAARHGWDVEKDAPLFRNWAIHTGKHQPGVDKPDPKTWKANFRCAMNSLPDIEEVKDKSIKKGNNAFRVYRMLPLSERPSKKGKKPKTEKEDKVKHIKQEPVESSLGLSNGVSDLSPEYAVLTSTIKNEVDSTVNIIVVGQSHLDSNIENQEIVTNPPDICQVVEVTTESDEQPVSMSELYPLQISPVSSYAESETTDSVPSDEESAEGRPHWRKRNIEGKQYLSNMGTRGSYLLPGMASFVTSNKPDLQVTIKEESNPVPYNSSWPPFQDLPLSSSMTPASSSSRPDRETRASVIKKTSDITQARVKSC

Variants of: B1
Details: with cers2_human CERS2, Q96G23

Row | Variant | effect of a mutation on the interaction
1 | Y576E | increasing interaction strength

Variants of: B2
Details: with tf65_human RELA

Row | Variant | effect of a mutation on the interaction
2 | S40D | increasing interaction strength

Variants of: B2
Details: with apex1_human APEX1, P27695
apex1_human APEX1, P27695, sequence (P27695 whole entry): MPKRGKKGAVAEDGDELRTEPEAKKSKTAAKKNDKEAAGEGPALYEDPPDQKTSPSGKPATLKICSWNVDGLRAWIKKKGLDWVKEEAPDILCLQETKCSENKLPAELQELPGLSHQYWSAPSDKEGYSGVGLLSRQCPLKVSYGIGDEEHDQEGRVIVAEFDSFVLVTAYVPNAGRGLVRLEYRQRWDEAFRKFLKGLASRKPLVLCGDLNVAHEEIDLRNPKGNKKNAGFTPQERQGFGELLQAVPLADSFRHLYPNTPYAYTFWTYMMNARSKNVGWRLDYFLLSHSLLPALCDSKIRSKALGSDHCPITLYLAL

Row | Variant | effect of a mutation on the interaction
3 | S40D | increasing interaction strength

Variants of: B2
Details: with brpf3_human BRPF3, Q9ULD4
brpf3_human BRPF3, Q9ULD4, sequence (Q9ULD4 whole entry): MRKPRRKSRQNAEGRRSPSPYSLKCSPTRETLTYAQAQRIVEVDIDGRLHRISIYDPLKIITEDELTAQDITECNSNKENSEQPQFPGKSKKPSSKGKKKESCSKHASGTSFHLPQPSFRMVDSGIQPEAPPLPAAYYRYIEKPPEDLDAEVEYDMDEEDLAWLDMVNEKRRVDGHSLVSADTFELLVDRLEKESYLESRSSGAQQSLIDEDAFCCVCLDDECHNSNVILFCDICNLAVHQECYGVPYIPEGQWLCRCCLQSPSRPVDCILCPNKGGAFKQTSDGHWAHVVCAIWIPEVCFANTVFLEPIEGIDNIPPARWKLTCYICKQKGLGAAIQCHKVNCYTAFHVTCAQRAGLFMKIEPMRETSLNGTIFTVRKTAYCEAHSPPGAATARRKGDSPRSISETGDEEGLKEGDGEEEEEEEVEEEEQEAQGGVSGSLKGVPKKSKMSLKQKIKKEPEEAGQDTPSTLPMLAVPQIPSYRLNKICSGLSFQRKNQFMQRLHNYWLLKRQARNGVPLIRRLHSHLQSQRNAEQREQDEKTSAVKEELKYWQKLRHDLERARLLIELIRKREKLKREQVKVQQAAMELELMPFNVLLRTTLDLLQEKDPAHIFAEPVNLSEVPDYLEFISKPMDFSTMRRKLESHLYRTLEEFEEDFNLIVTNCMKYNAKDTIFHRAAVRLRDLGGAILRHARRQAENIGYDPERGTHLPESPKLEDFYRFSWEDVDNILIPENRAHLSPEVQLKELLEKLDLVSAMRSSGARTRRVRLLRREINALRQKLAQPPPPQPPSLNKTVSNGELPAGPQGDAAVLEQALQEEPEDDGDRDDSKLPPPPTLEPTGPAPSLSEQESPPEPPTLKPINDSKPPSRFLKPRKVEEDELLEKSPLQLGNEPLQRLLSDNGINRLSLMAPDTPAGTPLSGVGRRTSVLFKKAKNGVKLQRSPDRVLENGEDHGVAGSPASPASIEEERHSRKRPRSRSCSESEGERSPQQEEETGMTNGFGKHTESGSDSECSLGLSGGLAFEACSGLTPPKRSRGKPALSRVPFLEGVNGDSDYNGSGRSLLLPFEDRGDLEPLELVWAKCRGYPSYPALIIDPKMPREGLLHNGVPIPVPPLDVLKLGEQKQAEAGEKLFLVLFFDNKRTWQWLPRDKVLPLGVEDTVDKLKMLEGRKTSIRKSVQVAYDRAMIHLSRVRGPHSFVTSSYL

Row | Variant | effect of a mutation on the interaction
4 | S408A | decreasing interaction strength
5 | T559D | decreasing interaction strength
6 | Y576E | decreasing interaction strength
7 | Y576F | decreasing interaction strength

Variants of: B2
Details: with ima1_human KPNA2, P52292

Row | Variant | effect of a mutation on the interaction
8 | T559D | decreasing interaction strength
9 | Y576E | decreasing interaction strength

Variants of: B3
Details: with irf2_human IRF2, P14316

Row | Variant | effect of a mutation on the interaction
10 | T559D | decreasing interaction strength
11 | Y576F | decreasing interaction strength
12 | Y576E | decreasing interaction strength
13 | S408A | decreasing interaction strength
